Assay results: the DeepSol protein solubility set

Assay: soluble on expression in E. coli; label from the status in PepcDB or PDB records

| Sequence | soluble on expression in E. coli |
| --- | --- |
| MVAVIIKGNEVAEKKRAQLKEEVVKLKEQGIVPGLAVILVGEDPASRSYVKGKEKGCEQVGIYSELIEFPETITEERLLAEIDRLNGDDRINGILVQLPLPKHIEEKAIIERISPEKDVDGFHPISVGRMMTGQDTFLPCTPHGIVELVKETNLDISGKHVVVIGRSNIVGKPVGQLFLNENATVTYCHSKTQNMKELTKLADILIVAVGRPKMVTADYIKEGAVVIDVGVNRLETGKLCGDVDFDNVLDVASYITPVPKGVGPMTITMLLHNTVESAKRAGVVCK | not soluble |
| MGSDKIHHHHHHMSKRKLTTKFEEEPLNFGTGMWNVGLTPNVCRCTLLLPTSCMTCLVGTGRTASGRWPATYVPFDESAISELKRYASFIAISNHSDLLSDPSGSRRFICINITGRIRNGVAINYLQPYAQAVQELREGECFYFSPEEEAVLMENNQEFELQTPVGHLFQQYFRSADEGEKCETLLAVDILGRIQKKSGFKLSATKIVHLGRILRKLGVPCKKMKNGNFYCVVEL | not soluble |
| MGSDKIHHHHHHMSRYVIRTYKVPVPVELYPLCSELNRIAARIYNKTMSLVKKIKNKKGFWLSPNTAQKYILRWSSAIDIHTHSKQAMVQLYFQALNSYFVAVKTNPHAKPPYKRKNFLPFIWKNQAIKLLPDGKVKLSMGRNREPFVIPTTLPAGTTIRQAKLVYEAGRYYLHLAIEVKSEHKRGQSQKVMSVDVGILRPITCFDGSEVISYHGGVLNSILRYRNKRLADIQRALSRCQKGSRRYKKLSRAKRRVLYKTRNQINDVLHKITSHFIGLCVQKNIGTIVVGDITNIRERTNGNDNFNQKLHQWAFRKLMSQIEYKAQIFGIEVVRISEAHTSKTCPVCGTQNRPSGRNYKCAGCGFEYHRDGVGAINIWKRYLGTKSQVVAGLAPARGVRFNPHLCGHGAISAPWKAA | not soluble |
| MPLGSLFDKTYDEMHCNQKSWEMAERQLMEDAVNVALQKNNLTKDDIDLLLAGDLLNQNVTANYVARHLKIPFLCMFGACSTSMETVAVASALVDGGFAKRALAATSSHNATAERQFRYPTEYGGQKPDTATSTVTGSGAVVISQTPGDIQITSATVGKVSDLGITDPFDMGSAMAPAAADTIKQHFKDLNRTADDYDLILTGDLSGVGSPIVKDILKEDGYPVGTKHDDCGLLIYTPDQQVFAGGSGCACSAVVTYSHIFKQLREGKLNRVFVVATGALLSPTMIQQKETIPTIAHGVVFERAGGASLEHHHHHH | not soluble |
| MTVEHSEAPMTETDVVIIGAGHNGLTCAAYLAMAGLRVRVVERRKVVGGAAVTEEFHPGFRNSVAAYTVSLLNPQVIRDLGLAEQGLRIVERRAQNFLPAPDGSYLLTGEGRTKASVARLSAHDADALDGFSRELEDIADVLRQFVLRAPPNLLDGFGTNAIREAVNALQSANILRGLTLEQSRSLLDLFTRSAGEMLDERFEHDLVKALFGFDAIVGNYASPYAAGSAYVMLHHAFGEVNGKKGVWGHAIGGMGAITQAMARAAQGRGVAIDTDAGVREVIVERDRAVGVVLENGATIRAKYVAANVNPKLLYTRLIAADALPKDFLARIRHWKNGSGTFRMNVALDRLPSFTALPDDGDHLTSGIILAPSLGYMDRAFLDARAHGWSREPVVEMLIPSTLDDTLAPEGKHVASLFCQHVAPELPDSRSWDDHRDEVADLMIATVDSYAPGFASSVLGRQILSPLDLERQFGLLGGDIFHGALTLNQLFSARPMLGHADYRGPLKGLYHCGSGAHPGGGVTGAPGHNAAQAILRDHRSLFGSRGLEHHHHHH | not soluble |
| VSQLLPSDFNLRYPANSTSIVPISDLSITQIEADPNDSTIAVLTIQVIIRVNSFNNSLNFGIATYTQKIPGFLNQDSGRIALGFRDLALNANDLIIFNGIKGDTGVDAAIQSGKDNFTINSPIGFENIIFSIQDFDSTSTNASRGELGFVIKGEFNGQILLSSTINQKIVVSEFLAENLAILNAATEFGVILKPEFNLNSNRPTASQASKDNFSINFSQAPDPR | soluble |
| MIIDIHGHYTTAPKALEDWRNRQIAGIKDPSVMPKVSELKISDDELQASIIENQLKKMQERGSDLTVFSPRASFMAHHIGDFNVSSTWAAICNELCYRVSQLFPDNFIGAAMLPQSPGVDPKTCIPELEKCVKEYGFVAINLNPDPSGGHWTSPPLTDRIWYPIYEKMVELEIPAMIHVSTSCNTCFHTTGAHYLNADTTAFMQCVAGDLFKDFPELKFVIPHGGGAVPYHWGRFRGLAQEMKKPLLEDHVLNNIFFDTCVYHQPGIDLLNTVIPVDNVLFASEMIGAVRGIDPRTGFYYDDTKRYIEASTILTPEEKQQIYEGNARRVYPRLDAALKAKGKLEHHHHHH | soluble |
| MGSDKIHHHHHHMKLSVKIAGVLTVAAAAMTAKMYATAKGNHLKTHTFPLSKMKGKPPLTIFFISDIHKRLIDQDLLEKARSHAPHLVIIGGDLAEGGVPSARIEENIKRLVHFGVPIVFVWGNNDYEVRQHKLYSIFKAHGVITLRNESVPFSYNGHTIAIAGVDDIRMEMDHYEEAIKELDESQLNILVCHNPEIHEQINEDDGIDVILSGHTHGGQIRFGKFGPYELGKTGIVKNAAYLISNGYGTTKVPLRLGAEPETHIVTLCGPE | not soluble |
| MGSDKIHHHHHHMLCSRYFTSSLFLWGEALPTLLEEFLNEVEKMLKNQVNTRRIHQLLKELDDPLLENKDLEEKLQAFLDYVKEIPNLPEARKRYRIQKSLEMIEKLRSWFLIDYLECSGEEVDLSTDIQYAKGVGPNRKKKLKKLGIETLRDLLEFFPRDYEDRRKIFKLNDLLPGEKVTTQGKIVSVETKKFQNMNILTAVLSDGLVHVPLKWFNQDYLQTYLKQLTGKEVFVTGTVKSNAYTGQYEIHNAEVTPKEGEYVRRILPIYRLTSGISQKQMRKIFEENIPSLCCSLKETLPERILEKRKLLGVKDAYYGMHFPKTFYHLEKARERLAYEELFVLQLAFQKIRKEREKHGGIPKKIEGKLAEEFIKSLPFKLTNAQKRAHQEIRNDMISEKPMNRLLQGDVGSGKTVVAQLAILDNYEAGFQTAFMVPTSILAIQHYRRTVESFSKFNIHVALLIGATTPSEKEKIKSGLRNGQIDVVIGTHALIQEDVHFKNLGLVIIDEQHRFGVKQREALMNKGKMVDTLVMSATPIPRSMALAFYGDLDVTVIDEMPPGRKEVQTMLVPMDRVNEVYEFVRQEVMRGGQAFIVYPLIEESDKLNVKSAVEMYEYLSKEVFPEFKLGLMHGRLSQEEKDRVMLEFAEGRYDILVSTTVIEVGIDVPRANVMVIENPERFGLAQLHQLRGRVGRGGQEAYCFLVVGDVGEEAMERLRFFTLNTDGFKIAEYDLKTRGPGEFFGVKQHGLSGFKVADLYRDLKLLEWAREDVQEIDVEGIELPEEIKLIEVG | not soluble |
| MTLALLGSSLPAASLQAGETGISVSASSTVTYNPDTAEFTTTVESTDKDAAKAAAKVATLWSSLQQALRKVGISSADASSTSYTVSPEWEWNSANGKREFKGYKARHVVRVVVRDLGKLGGAIDAVVGAGSGTVDGLSYSSSRFESLRTQALENAVKSAKHDAEVMARAAGGRLGQPLELQYGQPQSDYPVMRFAMAEGFKAAPAPTDVEPGEQKLTVSVSSRWQFVSGSGKLEHHHHHH | not soluble |
| MGSDKIHHHHHHMNLRQLEYFVTLSETLSFTKTAQKFFISQTAVTKQIKLLENTLDTKLFNRNKHYVELTPAGNVFLMEAKAILLRVEEATERVHLTTIGFVGLLRIGFIKGYEKTAFSDLIFQLYNKYPNISITFFRGTESELYEKVLNSELDIVFNSVKPKNIDKTLEMKLIDKYPLKVVVHPTHPLAARKSVRFEELRGETIFKYNDGQDIEVTLLMVSANMGIAVMPSYCVRYLSQSQNLMIIAVENNNFYVDIAAVWNKENNNPALLRVLQIIKEAEQ | not soluble |
| MGSDKIHHHHHHMALVALPGGGAVDPAFWSVQAAEDFEQEIVDQYALAMAAAGLSDSHIRNTRSTIIEFARSVTGPLWAATCQDADRFLAEQRRLGRSVSTRAGKAGTLALFYEFMISRYQGRIHRLTGVLVEQPIDEFNRQAGASLGKVRVPPSDAEIDAFFTCWRHSIPQARKYLPAARDYFAASLWRRLGLRITETVMLDIRDWRPDLGGFGKLHVRYGKGAHGRGPKPRLVPAINGAAELIDWWLGDVRHRYGEDWADPDAPLLPSERFDRELGRCGRVGGNALRRSLGLQVDQWLPAWSGRMTPHVLRHYCASSLYGAGMDIKALQELLGHQWLSTTSGYIHVRSEHVEQAWKNANERVESRFATTQKEG | not soluble |
| MNKLYIGNLSENAAPSDLESIFKDAKIPVSGPFLVKTGYAFVDCPDESWALKAIEALSGKIELHGKPIEVEHSVPKRQRIRKLQIRNIPPHLQWEVLDSLLVQYGVVESCEQVNTDSETAVVNVTYSSKDQARQALDKLNGFQLENFTLKVAYIPDEMAAQQNPLQQPRGRRGLGQRGSSRQGSPGSVSKQKPCDLPLRLLVPTQFVGAIIGKEGATIRNITKQTQSKIDVHRKENAGAAEKSITILSTPEGTSAACKSILEIMHKEAQDIKFTEEIPLKILAHNNFVGRLIGKEGRNLKKIEQDTDTKITISPLQELTLYNPERTITVKGNVETCAKAEEEIMKKIRESYENDIASMNLQAHLIPGLNLNALGLFPPTSGMPPPTSGPPSAMTPPYPQFEQSETETVHLFIPALSVGAIIGKQGQHIKQLSRFAGASIKIAPAEAPDAKVRMVIITGPPEAQFKAQGRIYGKIKEENFVSPKEEVKLEAHIRVPSFAAGRVIGKGGKTVNELQNLSSAEVVVPRDQTPDENDQVVVKITGHFYACQVAQRKIQEILTQVKQHQQQKALQSGPPQSRRK | soluble |
| MSKLKKKEYEQELKKLQVELVKLQEWVKHKGLKVVVLFEGRDAAGKGGVIKRITEKLNHRVCRVVALPAPTEKEKTQWYFQRYVAHLPSAGEIVLFDRSWYNRAGVEKVMGFCTPDEYEEFLRSCPEFERMLQRSGIILLKYWFSVSDEEQEKRFLGRINTPIKRWKFSPMDLESRHRWAEYSEAKDKMFAYTDTKNCPWWVVPSDSKQKARLNCISHLLSQIEYKALEYPPIELPEINKEGYVRAPIDDQTFVPDKY | not soluble |
| MGSDKIHHHHHHMKKVLGGLLVATAVVSLAACSGGEKKASSDVSIKDRYELDEKTPAWKLDKKKEPTKIKWYINSDWTALPFGKDVTTAQIKKDLNVDIEFISGDDSKLNAMISSGDMPDIVTLTEKTGQAALKADSWAYSLNDLAKKYDPYLMKVVNQDTFKWYALEDGKTYGYPNYSNTKADYESGNIPVNDNFVIREDVYNALGKPDVSTPENFEKVMQQIKEKYPEMTPMGFTTVGDGAGPFLDKLQDFLGVPLEDKNGKYYDRNLDKEYLEWLKTFNDVYRAGNISDDSFTDDGATFDEKVKQGNYATMLVAGTSGQGGNFTEFMKKSGTRYIAIDGPSSTSGRKPTLNQTGISGWLSNYITKDAKDPAKVTQLFTYLIDEPGQILTKYGVEGVTYAYNDQGKIDYLPEVKKLEQTDNDAYNKKYGISRFLYFNNDRVNKLKVPMESALTQMQEWGKGKLVPHFVIENINPDAGTPEARANEAIETKLNTTVISMIRAKDDKAFDKSLEDYKAFLKSNKWDAIEKIKSEKMAENRDKLK | not soluble |
| MSLSDNIYSVSQLNSAARQMLEGNFCQIWLTGEISNFTQPVSGHWYLTLKDENAQVRCAMFRMKNLRVAFRPQNGMQVLVRANVSLYEPRGDYQLIIDSMHPAGEGLLQQQFEALKMKLAAEGLFAQNLKKTLPHFSKAVGIITSSTGAALQDILHILARRDPSLKVVIYPTAVQGKEATAEIVQMIELANARQEVDVLIVGRGGGSLEDLWCFNEEEVARAIFRSTLPIISAVGHETDVTIADFVADLRAPTPSAAAELVSRNQDELLQQLRHQQQRLDMAFDRLFTRKSQRLKQLALRLQNQHPQNQLRAQQAKNEQLTHRLQLAILRQFENTQQKFTALSVRLKQNPLPYRIQRYQQGLEQLKVRLNFCVNRQVTERQNKLATLCGKLDGLSPLKVLARGYSIAENPQGKAIVSVKDVNQGDFITTQVADGKIVSKVLEGHHHHHH | not soluble |
| MSSDAISLRAAGPGDLPGLLELYQVLNPSDPELTTQEAGAVFAAMLAQPGLTIFVATENGKPVATATLLIVPNLTRAARPYAFIENVVTLEARRGRGYGRTVVRHAIETAFGANCYKVMLLTGRHDPAVHAFYESCGFVQNKTGFQIRQD | soluble |
